US20220324977A1 (BEIJING SINOGENE BIOTECHNOLOGY, published 2022)

How the values were obtained:
[1] = molecular target: T1, canine PD-1 protein amino acids 25-168 with His tag (canine, UniProt A0A090BAM7 25-168); assay: kinetics, PD-1 His 37.3 nM
T1 construct: Expressed in Expi293F cells; used as immunogen and as antigen in ELISA and Octet; also called PD-1 His

[2] = molecular target: T1, canine PD-1 protein amino acids 25-168 …; assay: kinetics, PD-1 His 12.4 nM
[3] = molecular target: T2, PD1 on the surface of T cells (canine PBMC stimulated with ConA) (canine, UniProt A0A090BAM7 25-288); assay: flow cytometry, ConA-stimulated canine PBMC, CD3-FITC and PE-labeled anti-canine IgG
T2 construct: also called canine PD-1
Protocol: (§1) The cells were stimulated by 0.5 μg/mL ConA for 3 days, and collected. PBMC was incubated with canine-anti-CD3-FITC and caninized monoclonal antibodies C1, C3 and C11 respectively. Then the cells were incubated again with PE-labeled canine-IgG antibody. […] Moreover, the results also indicate that the caninized monoclonal antibodies C1, C3 and C11 have potential blocking effect on the PD1/PD-L1 signaling pathway, and thus have protective effect on the function of T cells (see FIG. 14).

[4] = molecular target: T1, canine PD-1 protein amino acids 25-168 …; assay: kinetics, PD-1 His 1.1 nM
[5] = molecular target: T1, canine PD-1 protein amino acids 25-168 …; assay: kinetics, PD-1 His 1000.0 nM
[6] = molecular target: T1, canine PD-1 protein amino acids 25-168 …; assay: kinetics, PD-1 His 333.3 nM
[7] = molecular target: T1, canine PD-1 protein amino acids 25-168 …; assay: kinetics, PD-1 His 111.3 nM
[8] = molecular target: T1, canine PD-1 protein amino acids 25-168 …; assay: kinetics, global fit over the PD-1 His series 1.1-1000.0 nM
[9] = molecular target: T1, canine PD-1 protein amino acids 25-168 …; assay: kinetics, PD-1 His 4.0 nM
[10] = molecular target: T1, canine PD-1 protein amino acids 25-168 …; assay: kinetics, global fit over PD-1 His 1.1-1000 nM
[11] = molecular target: T2, PD1 on the surface of T cells (canine …); assay: flow cytometry on ConA-stimulated canine PBMC, stained with anti-CD3-FITC and the caninized antibody, detected with PE-labeled anti-canine IgG; quadrant plot FITC against PE; no unstained or isotype control shown
Protocol: as §1

T1 sequence (A0A090BAM7 entry or part of it limits assumed): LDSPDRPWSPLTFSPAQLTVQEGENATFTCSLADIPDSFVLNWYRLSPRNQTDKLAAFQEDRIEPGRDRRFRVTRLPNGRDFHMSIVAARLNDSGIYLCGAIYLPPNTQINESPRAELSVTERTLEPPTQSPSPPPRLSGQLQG
T2 sequence (A0A090BAM7 entry or part of it limits assumed): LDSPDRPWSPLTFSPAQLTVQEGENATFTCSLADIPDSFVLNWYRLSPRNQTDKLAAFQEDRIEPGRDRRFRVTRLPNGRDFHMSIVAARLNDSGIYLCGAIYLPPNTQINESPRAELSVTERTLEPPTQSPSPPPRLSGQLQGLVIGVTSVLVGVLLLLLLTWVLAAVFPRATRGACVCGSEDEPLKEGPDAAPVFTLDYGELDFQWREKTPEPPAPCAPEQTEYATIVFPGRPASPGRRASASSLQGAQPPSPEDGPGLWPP

- Kd [1]: < 1 pM
- Response (nm) [1]: 0.015 nm
- koff [1]: < 1e-07 s⁻¹
- kon [1]: 67600 M⁻¹ s⁻¹
- Kd [2]: < 1 pM
- Response (nm) [2]: 0.008 nm
- koff [2]: < 1e-07 s⁻¹
- kon [2]: 50100 M⁻¹ s⁻¹
- PD1 positive cells in T cells [3]: 96.7%
- Response (nm) [4]: -0.003 nm
- Kd [5]: < 1 pM
- Response (nm) [5]: 0.009 nm
- koff [5]: < 1e-07 s⁻¹
- kon [5]: 1470 M⁻¹ s⁻¹
- Kd [6]: < 1 pM
- Response (nm) [6]: 0.012 nm
- koff [6]: < 1e-07 s⁻¹
- kon [6]: 947 M⁻¹ s⁻¹
- Kd [7]: < 1 pM
- Response (nm) [7]: 0.025 nm
- koff [7]: < 1e-07 s⁻¹
- kon [7]: 23800 M⁻¹ s⁻¹
- Kd [8]: < 1 pM
- koff [8]: < 1e-07 s⁻¹
- kon [8]: 1190 M⁻¹ s⁻¹
- Response (nm) [9]: 0.004 nm
- Kd [10]: < 1 pM
- koff [10]: < 1e-07 s⁻¹
- kon [10]: 1190 M⁻¹ s⁻¹
- % of cells in quadrant Q2 (Comp-FITC-A positive, Comp-PE-A positive) [11]: 62.6%
B1: caninized monoclonal antibody C11 (antibody, V domains shown)
VH: EVQLQQSGAEVVKPGASVKLSCTASGFNIKDTYMHWVKQRPEQGLEWIGRIDPAIGNPKYDPKFQGRATITADTSSNTAYLQLSSLTSEDTAVYYCASGFYAMDCWGQGTSVTVSS
VL: QIVLTQSPAIMSASPGEKVTMTCSASSSITYMFWYQQKPGSSPRLWIYDTSNLVSGVPARFSGSKSGTSYSLTITSMEAEDAATYYCQQYSGYPSTFGSGTKLEIKR
notes: Variable domains as for M11; also called C11(37.40); 37.40
